Measurements reported in article PMC5161705 (Nature, 2016).

B1: SecB (natural protein)
chain: MSEQNNTEMTFQIQRIYTKDISFEAPNAPHVFQKDWQPEVKLDLDTASSQLADDVYEVVLRVTVTASLGEETAFLCEVQQGGIFSIAGIEGTQMAHCLGAYCPNILFPYARECITSMVSRGTFPQLNLAPVNFDALFMNYLQQQAGEGTEEHQDA

What was measured:
SecB = target: B1; test: NMR titration
NMR structure = target: the molecule itself; test: NMR structure
[1] = target: T1, alkaline phosphatase (PhoA) (E. coli, UniProt P00634 1-471 = phosphatase); test: SEC-MALS
[2] = target: maltose binding protein (MBP), MBP^1–396 (E. coli, UniProt P0AEX9 1-396 = MBP); test: SEC-MALS
[3] = target: T1, alkaline phosphatase (PhoA); test: ITC

Binder | binding result (SecB) | other results
MBP^29–99 (domain or fragment) not shown | binds | –
MBP^67–99 (domain or fragment) not shown | binds | –
MBP^97–164 (domain or fragment) not shown | binds | –
MBP^160–201 (domain or fragment) not shown | binds | –
MBP^198–265 (domain or fragment) not shown | binds | –
MBP^260–336 (domain or fragment) not shown | binds | –
MBP^331–396 (domain or fragment) not shown | binds | –
B1 | – | binding result (NMR structure): binds; stoichiometry N [1]: 1 SecB:PhoA; stoichiometry N [2]: 1 SecB:MBP
triple mutant SecB (SecB™), V40A/L42A/L44A (natural protein) MSEQNNTEMTFQIQRIYTKDISFEAPNAPHVFQKDWQPEAKADADTASSQLADDVYEVVLRVTVTASLGEETAFLCEVQQGGIFSIAGIEGTQMAHCLGAYCPNILFPYARECITSMVSRGTFPQLNLAPVNFDALFMNYLQQQAGEGTEEHQ | – | fold reduction in affinity against wild type SecB [3]: 40 fold
